The results in this text go back to IntAct's records for PubMed 25283965.

The labels stand for the following.
B1: C-C chemokine receptor type 2 (Homo sapiens), P41597-2 (parent)
chain: MLSTSRSRFIRNTNESGEEVTTFFDYDYGAPCHKFDVKQIGAQLLPPLYSLVFIFGFVGNMLVVLILINCKKLKCLTDIYLLNLAISDLLFLITLPLWAHSAANEWVFGNAMCKLFTGLYHIGYFGGIFFIILLTIDRYLAIVHAVFALKARTVTFGVVTSVITWLVAVFASVPGIIFTKCQKEDSVYVCGPYFPRGWNNFHTIMRNILGLVLPLLIMVICYSGILKTLLRCRNEKKRHRAVRVIFTIMIVYFLFWTPYNIVILLNTFQEFFGLSNCESTSQLDQATQVTETLGMTHCCINPIIYAFVGEKFRRYLSVFFRKHITKRFCKQCPVFYRETVDGVTSTNTPSTGEQEVSAGL
partner: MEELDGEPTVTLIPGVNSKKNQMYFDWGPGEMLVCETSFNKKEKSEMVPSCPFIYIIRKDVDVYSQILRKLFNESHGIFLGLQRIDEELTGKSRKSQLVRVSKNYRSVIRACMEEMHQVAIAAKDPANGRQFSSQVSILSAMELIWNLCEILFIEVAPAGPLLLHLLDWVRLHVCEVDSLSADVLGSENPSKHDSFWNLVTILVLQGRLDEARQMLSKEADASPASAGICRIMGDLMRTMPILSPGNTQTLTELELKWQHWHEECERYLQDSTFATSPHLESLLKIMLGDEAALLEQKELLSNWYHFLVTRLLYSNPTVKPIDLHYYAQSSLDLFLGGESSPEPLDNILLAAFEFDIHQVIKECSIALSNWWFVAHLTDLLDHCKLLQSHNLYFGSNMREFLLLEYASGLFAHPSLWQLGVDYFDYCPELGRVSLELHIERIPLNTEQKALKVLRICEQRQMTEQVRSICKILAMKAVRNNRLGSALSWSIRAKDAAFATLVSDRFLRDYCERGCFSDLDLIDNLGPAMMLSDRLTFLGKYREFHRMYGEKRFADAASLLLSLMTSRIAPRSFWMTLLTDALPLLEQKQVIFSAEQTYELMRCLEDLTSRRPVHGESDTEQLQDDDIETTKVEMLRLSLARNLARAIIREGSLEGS

In the first test the parent is B1. As to conditions: with nup85_human NUP85, Q9BW27.
Regarding MLSTSRSRFIRNTNESGEEVTTFFDYDYGAPCHKFDVKQIGAQLLPPLYSLVFIFGFVGNMLVVLILINCKKLKCLTDIYLLNLAISDLLFLITLPLWAHSAANEWVFGNAMCKLFTGLYHIGYFGGIFFIILLTIDRYLAIVHAVFALKARTVTFGVVTSVITWLVAVFASVPGIIFTKCQKEDSVYVCGPYFPRGWNNFHTIMRNILGLVLPLLIMVICYSGILKTLLRCRNEKKRHRAVRVIFTIMIVYFLFWTPYNIVILLNTFQEFFGLSNCESTSQLDQATQVTETLGMTHCCINPIIYAFVGEKFRRYLSVDFRKHITKRFCKQCPVFYRETVDGVTSTNTPSTGEQEVSAGL [F319D], the “effect of a mutation on the interaction” value was “decreasing interaction strength”.

Variants of B1 are the subject of a further test. As to conditions: with nup85_human NUP85, Q9BW27. The source holds these as a separate data set.
As for MLSTSRSRFIRNTNESGEEVTTFFDYDYGAPCHKFDVKQIGAQLLPPLYSLVFIFGFVGNMLVVLILINCKKLKCLTDIYLLNLAISDLLFLITLPLWAHSAANEWVFGNAMCKLFTGLYHIGYFGGIFFIILLTIDRYLAIVHAVFALKARTVTFGVVTSVITWLVAVFASVPGIIFTKCQKEDSVYVCGPYFPRGWNNFHTIMRNILGLVLPLLIMVICYSGILKTLLRCRNEKKRHRAVRVIFTIMIVYFLFWTPYNIVILLNTFQEFFGLSNCESTSQLDQATQVTETLGMTHCCINPIIYAFVGEKFRRYTSVFFRKHITKRFCKQCPVFYRETVDGVTSTNTPSTGEQEVSAGL [L316T], the “effect of a mutation on the interaction” value is listed as “decreasing interaction strength”.
